Reference: paper PMC9714796 (2022)

Target: T1, TGF-βRII-Fc (muTGFbRII-mFc) (mouse (from the printed name …, UniProt Q62312 24-166))
T1 chain: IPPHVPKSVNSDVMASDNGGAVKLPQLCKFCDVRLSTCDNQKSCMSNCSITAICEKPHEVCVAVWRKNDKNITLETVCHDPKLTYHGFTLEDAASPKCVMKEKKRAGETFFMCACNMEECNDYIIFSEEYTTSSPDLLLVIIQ
Experiment: SPR

B1: Transforming growth factor-β3 (TGF-β3) (ligand)
chain: ALDTNYCFRNLEENCCVRPLYIDFRQDLGWKWVHEPKGYYANFCSGPCPYLRSADTTHSTVLGLYNTLNPEASASPCCVPQDLEPLTILYYVGRTPKVEQLSNMVVKSCKCS
koff: 0.0013 s⁻¹
